Test results reported in US20050148031A1, “Catalytic efficiency and/or specificity of non-native substrates of enzymes” (priority 2003, published 2005).
Each block holds one compound with its values, some of them ahead of it.

Key:
[1] = target: T1, MEK2 phosphorylation of ERK2 (Mus musculus, UniProt P63085, K52R); assay: Kinase assay: MEK2 phosphorylation of ERK2 with docking domain peptides; format: biochemical, human (MEK2)
T1 construct: purchased New England Biolabs (ERK2 K52R); Upstate Biotechnology (MEK2)
Procedure: The following experiment was done to investigate whether docking domain peptides could inhibit MEK2 phosphorylation of ERK2. […] An autoradiogram of a representative experiment is shown (see FIG. 2A). The results were plotted as percent phoshphorylation relative to that observed in the absence of any added peptide (see FIG. 2B). ERK2 phosphorylation was analyzed by SDS-PAGE and quantified. Data are the average of two to four experiments, with triplicate data points in each experiment.
ERK2 and peptide were pre-incubated in buffer for 10 min at 37° C., then returned to ice prior to the addition of ATP and MEK2. Reactions were for 20 min at 30° C. ERK2 phosphorylation was quantified by SDS-PAGE followed by analysis of relative incorporation using a Phosphorlmager™ (Molecular Dynamics, Inc.).

[2] = target: T2, MEK2 binding to GST-ERK2 (Mus musculus, UniProt P63085); assay: GST co-sedimentation (pull-down) assay of 35S-MEK2 binding to GST-ERK2; conditions: 25 μM or 100 μM peptide
T2 construct: made in house; host or cells: MEK2 by in vitro translation
Procedure: The purpose of the following experiment is to assess whether MAPK docking domain peptides would inhibit MEK2-binding to GST-ERK2. Radiolabeled (^35S) MEK2 and MEK2Δ4-16 proteins (˜1 pmol) were prepared by in vitro translation, partially purified by ammonium sulfate precipitation, and then incubated with 10 μg of purified GST or GST-ERK2 pre-bound to glutathione-Sepharose beads, in the absence or presence of the specified concentrations of docking domain peptides (Ste7, MEK1, MEK2, Elk-1) or mutant forms of docking domain peptides (scram7, MEK2EEAA, ElkEEG). Bead-bound protein complexes were isolated by sedimentation and resolved on 12% SDS-polyacrylamide gels. An autoradiogram of a representative experiment is illustrated (see FIG. 5A). Gels were analyzed by staining with Coomassie Blue for visualization of the bound GST fusion protein in order to verify equal amounts in each reaction and by autoradiography for visualization of the bound radiolabeled MEK2 or MEK2Δ4-16 to GST or GST-ERK2 in the absence of peptide (hatched bars), or in the presence of 25 μM (light gray bars) or 100 μM peptide (dark gray bars) (see FIG. 5B). Data are the average of three to five experiments; standard error bars are shown.
The constructs and methods used in the GST co-sedimentation (“pull-down”) experiments shown in FIG. 5 have been described elsewhere (Bardwell et al., 2001). […]

[3] = target: T3, MKP-1 dephosphorylation of ERK2 (Mus musculus, UniProt P63085); assay: Phosphatase assay: MKP-1 dephosphorylation of ERK2 with docking domain peptides; format: biochemical, human (MKP-1); conditions: western blot with anti-phospho-ERK2
T3 construct: purchased Upstate Biotechnology (MKP-1); no vendor is printed for the active ERK2 in this assay
Procedure: The following experiment was performed to assess whether MAPK-docking domain peptides would inhibit dephosphorylation of ERK2 by MKP-1. Purified, full-length, activated ERK2 (0.5 pmol) was incubated with 0.5 units of purified active MKP-1 for 20 min, in the absence or presence of the specified concentrations of the indicated peptides. ERK2 dephosphoryation was quantified by SDS-PAGE followed by western blotting and immonostaining with anti-phospho-ERK2 (Thr202/Tyr204). The lanes corresponding to ERK2 with no MKP-1 or no added peptide contain 50% of the relative amounts loaded in all other lanes (see FIG. 4A).
Phosphatase reactions (20 μl) for MKP-1 dephosphorylation of ERK2 contained 50 mM Tris-HCl (pH 7.5), 50 mM NaCl, 0.5 pmol active mouse ERK2, 0.5 units active human MKP-1 (Upstate Biotechnology) and the indicated concentration of peptide. Reactions were for 30 min. at 30° C. Reactions were analyzed by SDS-PAGE followed by western transfer and immunostaining with anti-phospho-ERK2 (Thr202/Tyro204) antibody (New England Biolabs).

- IC50 ([1]; 1 μM inactive ERK2, 0.1 units active MEK2, 20 min, read-out: IC50 for inhibition of MEK2 phosphorylation of ERK2): ~100 µM
Compound: CC[C@H](C)[C@H](NC(=O)[C@@H]1CCCN1C(=O)[C@@H](NC(=O)[C@@H]1CCCN1C(=O)[C@H](CCCCN)NC(=O)[C@H](CCCCN)NC(=O)[C@H](CCCCN)NC(=O)[C@@H]1CCCN1C(=O)[C@@H](N)CCSC)[C@@H](C)O)C(=O)N[C@@H](CCC(N)=O)C(=O)N[C@@H](CC(C)C)C(=O)N[C@@H](CC(N)=O)C(=O)N1CCC[C@H]1C(=O)N[C@@H](C)C(=O)N1CCC[C@H]1C(=O)N[C@@H](CC(=O)O)C(=O)NCC(=O)O [MEK1, MPKKKPTPIQLNPAPDG]

- inhibition of MEK2 protein co-sedimentation with GST-ERK2 (in words) [2]: inhibited
- inhibition of MKP-1 mediated dephosphorylation of phospho-ERK2 (in words) [3]: dose-dependent inhibition
Compound: KGRKPRDLELPLSPS [Elk-1, docking domain peptide from Elk-1 residues 312-326]

- inhibition of ERK2 phosphorylation by MEK2 (in words) ([1]; peptide titrated into MEK2 kinase assay): did not inhibit
Compound: MLAEEKPVLPAATANPTIAE [MEK2 mutant peptide, MEK2 peptide with mutations in basic and hydrophobic residues]
